From the supplement of paper PMC5998384 come the findings set out here.

The subject of series [1] is HeLa Kyoto. The series can be described thus: solubility in G1/S (NP-40 vs SDS abundance) (log2 ratio); higher = more soluble. Particulars: cell cycle stage: G1/S.
Series [2] concerns HeLa Kyoto. The series is described as follows: melting temperature (median over replicates), in situ; higher = more thermally stable.
For series [3], the system named is HeLa Kyoto. The series can be described thus: solubility change mitosis vs G1/S (difference of NP-40 vs SDS log2 ratios) (log2 ratio difference); higher = more soluble in mitosis.
Series [4] relates to HeLa Kyoto. The series is described as follows: thermal stability score vs G1/S (z-score of summed log2 fold changes over temperatures); higher = more thermally stable than in G1/S.
[5] abbreviates: cell cycle stage: early G1 (4.5 h after nocodazole release).
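Throughout, for melting temperature (median over replicates), in situ: HeLa Kyoto cells synchronized by double thymidine or nocodazole block, proteins quantified by TMT10plex mass spectrometry, three independent biological replicates.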
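Throughout, for solubility change mitosis vs G1/S (difference of NP-40 vs SDS log2 ratios): synchronized HeLa Kyoto cells (double thymidine block for G1/S, nocodazole release for mitosis), protein amounts in NP-40 versus SDS lysates quantified by mass spectrometry, three biological replicates.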
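Throughout, for solubility in G1/S (NP-40 vs SDS abundance): HeLa Kyoto cells arrested at G1/S by double thymidine block, proteins quantified by TMT10plex mass spectrometry in mild NP-40 versus SDS extracts, three biological replicates.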
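Throughout, for thermal stability score vs G1/S (z-score of summed log2 fold changes over temperatures): synchronized HeLa Kyoto cells, proteins quantified by TMT10plex mass spectrometry, three biological replicates, mitosis taken 0.5 h after nocodazole release, G1/S directly after double thymidine block.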

Chain of ZFR (chain, as listed by the source): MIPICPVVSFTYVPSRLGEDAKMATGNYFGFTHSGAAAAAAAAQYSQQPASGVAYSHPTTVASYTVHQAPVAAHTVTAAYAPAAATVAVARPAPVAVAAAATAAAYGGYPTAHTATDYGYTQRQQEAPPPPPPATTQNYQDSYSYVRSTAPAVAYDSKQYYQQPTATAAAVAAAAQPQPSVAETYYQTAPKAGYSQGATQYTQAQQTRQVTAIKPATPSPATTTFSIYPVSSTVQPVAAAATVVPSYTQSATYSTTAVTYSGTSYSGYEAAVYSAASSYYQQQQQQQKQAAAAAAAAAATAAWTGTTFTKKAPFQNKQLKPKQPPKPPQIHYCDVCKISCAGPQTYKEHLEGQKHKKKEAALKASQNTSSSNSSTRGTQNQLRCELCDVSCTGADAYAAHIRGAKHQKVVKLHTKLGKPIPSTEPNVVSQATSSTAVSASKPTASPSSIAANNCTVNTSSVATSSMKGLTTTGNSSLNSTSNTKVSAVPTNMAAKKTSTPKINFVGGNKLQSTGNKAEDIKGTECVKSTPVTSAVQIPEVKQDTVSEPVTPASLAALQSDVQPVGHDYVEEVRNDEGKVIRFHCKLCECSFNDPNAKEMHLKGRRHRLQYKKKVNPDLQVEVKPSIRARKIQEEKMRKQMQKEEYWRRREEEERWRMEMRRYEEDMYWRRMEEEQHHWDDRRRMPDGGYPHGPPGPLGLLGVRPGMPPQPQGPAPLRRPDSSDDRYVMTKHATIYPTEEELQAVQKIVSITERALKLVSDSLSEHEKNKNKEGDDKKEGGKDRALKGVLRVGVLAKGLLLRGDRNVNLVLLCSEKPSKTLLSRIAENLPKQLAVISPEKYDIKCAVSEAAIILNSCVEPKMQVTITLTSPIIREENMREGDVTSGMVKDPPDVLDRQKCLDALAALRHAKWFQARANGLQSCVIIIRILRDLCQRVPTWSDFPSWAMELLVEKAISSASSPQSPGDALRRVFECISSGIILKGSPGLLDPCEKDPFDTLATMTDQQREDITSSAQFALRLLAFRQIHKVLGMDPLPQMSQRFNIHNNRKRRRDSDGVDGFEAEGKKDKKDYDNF

In the case of “MGKRGSRSQSQLLNTLTKKQKKHLRDFGEEHPFYDRVSRKEAKPQICQLSESSDSSDSESDSESEPQQVSGYHRLLATLKNVSEEEEEDEEEEEEEDSIVDDAEMNDEDGGSDVSVEEEMAAESTESPENVALSADPEGKEDGEEPPGTSQTSPEEFTDAKHESLFSLETNFLEEESGDNSSLKASQDPFLQHVNKELKEKAIQAVATNPKTTHELKWPILGQLFFSSKFQKLETFKPPKDIDLKSLHLQKPLESTWTKTNSQFLSGPQKSSSPFTPLQKELFLIMNSYRDLFYPERTALKNGEEIRHVYCLHVINHILKANAQVLGNNSRRRSQKFGVGDDDDFRDQGLTRPKVLIVVPFREAALRVVQLFISLLEGDSKKKIIVSNKKRFQGEYGSDPEERPPNLKRPEDYEAVFVGNIDDHFRIGVAILQRSIRLYAPFYSSDILIASPLGLRTIIGGEGEKKRDFDFLSSIELLIIDQADIYLMQNWEHVLHLMNHMNLLPLDSHGVDFSRVRMWSLNNWSKYYRQTLLFGALQDAQINSVFNKYCVNMQGQVAVRNVPMTGSISHVLVQLPHVFQRMEAENLASVIDARFNFFVNKILPQYRDAVMSHTLIYIPSYFDFVRLRNYFKKEELNFTHICEYTQKSGVSRARHFFLQGEKQFLLFTERFHFYKRYTIKGIRNLIFYELPTYPHFYSEICNMLRATNRGEEATWTCTVLYSKYDAQRLAAVVGVERAAQMLQSNKNVHLFITGEK [DIEXF]”, the “solubility in G1/S (log2)” value in series [1] was -0.69. For the same substance, the results for the melting temperature in series [2] (cell cycle stage: G1/S) and in series [2] (cell cycle stage: mitosis) were 47.2 °C and 49.3 °C, respectively. Moreover, in series [3], the “solubility change mitosis (log2)” value was found to be 0.17. Besides, the thermal stability score was 0.651 in series [4] (setting [5]) and 2.11 in series [4] (cell cycle stage: mitosis).
Consider ZFR, for which the “solubility in G1/S (log2)” value in series [1] was -0.167. The melting temperature was 52.4 °C in series [2] (cell cycle stage: G1/S) and 51.9 °C in series [2] (cell cycle stage: mitosis). Further, the “solubility change mitosis (log2)” value in series [3] worked out at 0.103. Besides, the values for the thermal stability score in series [4] (setting [5]) and in series [4] (cell cycle stage: mitosis) were 0.655 and -0.928, respectively.
With “MAAGTAAALAFLSQESRTRAGGVGGLRVPAPVTMDSFFFGCELSGHTRSFTFKVEEEDDAEHVLALTMLCLTEGAKDECNVVEVVARNHDHQEIAVPVANLKLSCQPMLSLDDFQLQPPVTFRLKSGSGPVRITGRHQIVTMSNDVSEEESEEEEEDSDEEEVELCPILPAKKQGGRP [NPM3]”, the “solubility in G1/S (log2)” value in series [1] was -0.153. Also, the melting temperature turned out to be 54 °C in series [2] (cell cycle stage: G1/S) and 53 °C in series [2] (cell cycle stage: mitosis). Moreover, in series [3], the “solubility change mitosis (log2)” value stood at 0.0933. Further, the thermal stability score was -0.577 in series [4] (setting [5]) and -2.29 in series [4] (cell cycle stage: mitosis).
As for “MTGNAGEWCLMESDPGVFTELIKGFGCRGAQVEEIWSLEPENFEKLKPVHGLIFLFKWQPGEEPAGSVVQDSRLDTIFFAKQVINNACATQAIVSVLLNCTHQDVHLGETLSEFKEFSQSFDAAMKGLALSNSDVIRQVHNSFARQQMFEFDTKTSAKEEDAFHFVSYVPVNGRLYELDGLREGPIDLGACNQDDWISAVRPVIEKRIQKYSEGEIRFNLMAIVSDRKMIYEQKIAELQRQLAEEEPMDTDQGNSMLSAIQSEVAKNQMLIEEEVQKLKRYKIENIRRKHNYLPFIMELLKTLAEHQQLIPLVEKAKEKQNAKKAQETK [UCHL5]”, the “solubility in G1/S (log2)” value in series [1] was 0.533. Also, the melting temperature in series [2] (cell cycle stage: G1/S) was determined as 48.7 °C; in series [2] (cell cycle stage: mitosis), 48.9 °C. Besides, in series [3], the “solubility change mitosis (log2)” value was -0.0948. Besides, the thermal stability score in series [4] (setting [5]) turned out to be 1.19; in series [4] (cell cycle stage: mitosis), 2.51.
Regarding “MGEIKVSPDYNWFRGTVPLKKIIVDDDDSKIWSLYDAGPRSIRCPLIFLPPVSGTADVFFRQILALTGWGYRVIALQYPVYWDHLEFCDGFRKLLDHLQLDKVHLFGASLGGFLAQKFAEYTHKSPRVHSLILCNSFSDTSIFNQTWTANSFWLMPAFMLKKIVLGNFSSGPVDPMMADAIDFMVDRLESLGQSELASRLTLNCQNSYVEPHKIRDIPVTIMDVFDQSALSTEAKEEMYKLYPNARRAHLKTGGNFPYLCRSAEVNLYVQIHLLQFHGTKYAAIDPSMVSAEELEVQKGSLGISQEEQ [SPG21]”, in series [1], the “solubility in G1/S (log2)” value stood at 0.00691. Besides, the melting temperature in series [2] (cell cycle stage: G1/S) was 49.5 °C; in series [2] (cell cycle stage: mitosis) it was 49 °C. Besides, the “solubility change mitosis (log2)” value in series [3] is -0.157. In addition, the results for the thermal stability score in series [4] (setting [5]) and in series [4] (cell cycle stage: mitosis) were 0.11 and 0.524, respectively.
As to “MELCGLGLPRPPMLLALLLATLLAAMLALLTQVALVVQVAEAARAPSVSAKPGPALWPLPLLVKMTPNLLHLAPENFYISHSPNSTAGPSCTLLEEAFRRYHGYIFGFYKWHHEPAEFQAKTQVQQLLVSITLQSECDAFPNISSDESYTLLVKEPVAVLKANRVWGALRGLETFSQLVYQDSYGTFTINESTIIDSPRFSHRGILIDTSRHYLPVKIILKTLDAMAFNKFNVLHWHIVDDQSFPYQSITFPELSNKGSYSLSHVYTPNDVRMVIEYARLRGIRVLPEFDTPGHTLSWGKGQKDLLTPCYSRQNKLDSFGPINPTLNTTYSFLTTFFKEISEVFPDQFIHLGGDEVEFKCWESNPKIQDFMRQKGFGTDFKKLESFYIQKVLDIIATINKGSIVWQEVFDDKAKLAPGTIVEVWKDSAYPEELSRVTASGFPVILSAPWYLDLISYGQDWRKYYKVEPLDFGGTQKQKQLFIGGEACLWGEYVDATNLTPRLWPRASAVGERLWSSKDVRDMDDAYDRLTRHRCRMVERGIAAQPLYAGYCNHENM [HEXB]”, the “solubility in G1/S (log2)” value in series [1] worked out at 0.38. Besides, the melting temperature amounted to 56.7 °C in series [2] (cell cycle stage: G1/S) and 58 °C in series [2] (cell cycle stage: mitosis). The “solubility change mitosis (log2)” value in series [3] turned out to be 0.0247. Besides, the results for the thermal stability score in series [4] (setting [5]) and in series [4] (cell cycle stage: mitosis) were -1.76 and -0.878, respectively.
